In patent publication US20200095327A1 (DRAGONFLY THERAPEUTICS, published 2020):

What was measured:
[1] = target: T1, CD33 expressed on MV4-11 human AML cells (human, UniProt P20138 18-364); experiment: flow cytometry on MV4-11 cells, anti-human IgG secondary
T1 construct: whole, on cells; also called cell-expressed CD33
Text: Human AML cell line MV4-11, expressing CD33 was used to assay the binding of TriNKETs to the tumor associated antigen.

[2] = target: T2, Tyrp-1 on B16F10 melanoma cells (UniProt P07147 25-537, limits assumed); experiment: flow cytometry on B16F10 tumor cells, 60 ug/mL with four-fold dilutions, goat anti-mouse PE secondary (FIG. 50A)
T2 construct: whole, on cells; also called Tyrp-1-positive B16F10 melanoma cells; B16F10 tumor cells
Description: 60 μg/mL of indicated antibodies with four-fold dilutions were added to 2×10⁵ B16F10 tumor cells (FIG. 50A) or EL4-mNKG2D cells (FIG. 50B). Binding was assessed using a goat anti-mouse PE secondary antibody followed by flow cytometric analysis.

T1 sequence (P20138 18-364): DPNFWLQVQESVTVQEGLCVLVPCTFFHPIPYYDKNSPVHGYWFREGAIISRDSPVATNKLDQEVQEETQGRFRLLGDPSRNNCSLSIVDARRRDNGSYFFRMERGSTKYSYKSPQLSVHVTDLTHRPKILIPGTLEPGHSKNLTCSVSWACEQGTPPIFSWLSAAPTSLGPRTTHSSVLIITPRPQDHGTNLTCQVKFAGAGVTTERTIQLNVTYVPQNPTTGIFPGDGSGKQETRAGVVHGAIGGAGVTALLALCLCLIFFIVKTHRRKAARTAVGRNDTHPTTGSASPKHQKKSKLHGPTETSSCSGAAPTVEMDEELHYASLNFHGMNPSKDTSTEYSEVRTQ

binding result [1]	binding result [2]	Binder
binds	–	CD33-TriNKET-C26 (ADI-28226 and a CD33-binding domain) (bispecific antibody, V domains shown, also called C26-TriNKET-CD33; CD33-targeting TriNKET) VH 1: QVQLQQWGAGLLKPSETLSLTCAVYGGSFSGYYWSWIRQPPGKGLEWIGEIDHSGSTNYNPSLKSRVTISVDTSKNQFSLKLSSVTAADTAVYYCARARGPWSFDPWGQGTLVTVSS VL 1: DIQMTQSPSTLSASVGDRVTITCRASQSISSWLAWYQQKPGKAPKLLIYKASSLESGVPSRFSGSGSGTEFTLTISSLQPDDFATYYCQQYGSFPITFGGGTKVEIK VH 2: QVQLVQSGAEVKKPGASVKVSCKASGYTFTDYVVHWVRQAPGQGLEWMGYINPYNDGTKYNEKFKGRVTMTRDTSISTAYMELSRLRSDDTAVYYCARDYRYEVYGMDYWGQGTLVTVSS VL 2: DIVLTQSPASLAVSPGQRATITCTASSSVNYIHWYQQKPGQPPKLLIYDTSKVASGVPARFSGSGSGTDFTLTINPVEANDTANYYCQQWRSYPLTFGQGTKLEIK
binds	–	CD33-TriNKET-F04 (ADI-29404 and a CD33-binding domain) (bispecific antibody, V domains shown, also called F04-TriNKET-CD33; CD33-targeting TriNKET) VH 1: QVQLQQWGAGLLKPSETLSLTCAVYGGSFSGYYWSWIRQPPGKGLEWIGEIDHSGSTNYNPSLKSRVTISVDTSKNQFSLKLSSVTAADTAVYYCARARGPWSFDPWGQGTLVTVSS VL 1: DIQMTQSPSTLSASVGDRVTITCRASQSISSWLAWYQQKPGKAPKLLIYKASSLESGVPSRFSGSGSGTEFTLTISSLQPDDFATYYCEQYDSYPTFGGGTKVEIK VH 2: QVQLVQSGAEVKKPGASVKVSCKASGYTFTDYVVHWVRQAPGQGLEWMGYINPYNDGTKYNEKFKGRVTMTRDTSISTAYMELSRLRSDDTAVYYCARDYRYEVYGMDYWGQGTLVTVSS VL 2: DIVLTQSPASLAVSPGQRATITCTASSSVNYIHWYQQKPGQPPKLLIYDTSKVASGVPARFSGSGSGTDFTLTINPVEANDTANYYCQQWRSYPLTFGQGTKLEIK
–	binds	mcFAE-C26.99 TriNKET (bispecific antibody, mouse IgG2c, also called murine cFAE-C26.99 TriNKET; TA99 TriNKET) light 1: DIQMTQSPSTLSASVGDRVTITCRASQSISSWLAWYQQKPGKAPKLLIYKASSLESGVPSRFSGSGSGTEFTLTISSLQPDDFATYYCQQYGSFPITFGGGTKVEIKRADAAPTVSIFPPSSEQLTSGGASVVCFLNNFYPKDINVKWKIDGSERQNGVLNSWTDQDSKDSTYSMSSTLTLTKDEYERHNSYTCEATHKTSTSPIVKSFNRNEC heavy 1: QVQLQQWGAGLLKPSETLSLTCAVYGGSFSGYYWSWIRQPPGKGLEWIGEIDHSGSTNYNPSLKSRVTISVDTSKNQFSLKLSSVTAADTAVYYCARARGPWSFDPWGQGTLVTVSSAKTTAPSVYPLAPVCGGTTGSSVTLGCLVKGYFPEPVTLTWNSGSLSSGVHTFPALLQSGLYTLSSSVTVTSNTWPSQTITCNVAHPASSTKVDKKIEPRVPITQNPCPPLKECPPCAAPDLLGGPSVFIFPPKIKDVLMISLSPMVTCVVVDVSEDDPDVQISWFVNNVEVHTAQTQTHREDYNSTLRVVSALPIQHQDWMSGKEFKCKVNNRALPSPIEKTISKPRGPVRAPQVYVLPPPAEEMTKKEFSLTCMIKGFLPAEIAVDWTSNGRTEQNYKNTATVLDSDGSYFMYSRLRVQKSTWERGSLFACSVVHEGLHNHLTTKTISRSLGK light 2: DIQMSQSPASLSASVGETVTITCRASGNIYNYLAWYQQKQGKSPHLLVYDAKTLADGVPSRFSGSGSGTQYSLKISSLQTEDSGNYYCQHFWSLPFTFGSGTKLEIKRADAAPTVSIFPPSSEQLTSGGASVVCFLNNFYPKDINVKWKIDGSERQNGVLNSWTDQDSKDSTYSMSSTLTLTKDEYERHNSYTCEATHKTSTSPIVKSFNRNEC heavy 2: EVQLQQSGAELVRPGALVKLSCKTSGFNIKDYFLHWVRQRPDQGLEWIGWINPDNGNTVYDPKFQGTASLTADTSSNTVYLQLSGLTSEDTAVYFCTRRDYTYEKAALDYWGQGASVIVSSAKTTAPSVYPLAPVCGGTTGSSVTLGCLVKGYFPEPVTLTWNSGSLSSGVHTFPALLQSGLYTLSSSVTVTSNTWPSQTITCNVAHPASSTKVDKKIEPRVPITQNPCPPLKECPPCAAPDLLGGPSVFIFPPKIKDVLMISLSPMVTCVVVDVSEDDPDVQISWFVNNVEVHTAQTQTHREDYNSTLRVVSALPIQHQDWMSGKEFKCKVNNRALPSPIEKTISKPRGPVRAPQVYVLPPPAEEMTKKEFSLTCMITGFLPAEIAVDWTSNGRTEQNYKNTATVLDSDGSYLMYSKLTVQKSTWERGSLFACSVVHEGLHNHLTTKTISRSLGK
